“Also recorded” adds a separate entry of the source. Marks after values point to notes of the source that are not given here.
Assays:
MDA-MB-231 tumors = assay: TNBC Tumor Assay, s.c. MDA-MB-231 xenografts; type: in vivo, nu/nu mice
Text: METHOD. TNBC Tumor Assay. Triple negative breast cancer (TNBC) is a subtype characterized by lack of gene expression for estrogen, progesterone and Her2/neu. TNBC is difficult to treat, and the resulting death rate in patients is reportedly disproportionately higher than for any other subtype of breast cancer. A TNBC xenograft model was generated in an analogous way to the KB and M109 models described herein by implanting MDA-MB-231 breast cancer cells in nu/nu mice. Dosing was initiated when the s.c. tumors have an average volume between 110-150 (generally 130) mm^3 (t0), typically 17 days post tumor inoculation (PTI). Test animals (5/group) were injected i.v., generally three times a week (TIW), for 2-3 weeks with varying doses, such as with 1 μmol/kg to 5 μmol/kg, of the drug delivery conjugate or with an equivalent dose volume of PBS (control), unless otherwise indicated. Dosing solutions were prepared fresh each day in PBS and administered through the lateral tail vein of the mice.

[1] = test system: KB-CR2000 (cisplatin resistant) tumors; assay: Cisplatin-resistant KB-CR2000 tumor model; type: in vivo, mice
Text: METHOD. Human cisplatin-resistant cell line. […] In addition, regrowth of the tumor was only observed in 1/5 test animals.

ST040 tumors = assay: Endometrial PDX tumor model; type: in vivo, Balb/c nu/nu mice; settings: combined with Paclitaxel 15 mg/kg
Method: (§1) Female Balb/c nu/nu mice were fed ad libitum with folate-deficient chow (Harlan diet #TD01013) for the duration of the experiment. Primary human Endometrial model ST040, TNBC models 5T502 and ST738 and Ovarian model ST024 fragments (2-4 mm in diameter) were inoculated subcutaneously at the right flank of each mouse. Mice were randomized into 6 experimental groups of 5 or 3 mice each and test articles were injected through the lateral tail vein under sterile conditions in a volume of 200 μL of phosphate-buffered saline (PBS).
(§2) Growth of each s.c. tumor was followed by measuring the tumor two times per week until a volume of 1200 mm^3 was reached. Tumors were measured in two perpendicular directions using Vernier calipers, and their volumes were calculated as 0.5×L×W^2, where L=measurement of longest axis in mm and W=measurement of axis perpendicular to L in mm.

ST502 tumors = assay: TNBC PDX tumor model; type: in vivo, Balb/c nu/nu mice; settings: combined with Eribulin mesylate 1 mg/kg
Method: as §1, §2

ST738 tumors = assay: TNBC PDX tumor model; type: in vivo, Balb/c nu/nu mice; settings: combined with Eribulin mesylate 1 mg/kg
Method: as §1, §2

LU1147 NSCLC tumors = assay: Huprime NSCLC PDX tumor model; type: in vivo, Balb/c nu/nu mice; settings: combined with Docetaxel (one dose of 15 mg/kg)
Method: (§3) Female Balb/c nu/nu mice were fed ad libitum with folate-deficient chow (Harlan diet #TD01013) for the duration of the experiment. Primary human NSCLC models LU1147 or LU2505 fragments (2-4 mm in diameter) were inoculated subcutaneously at the right flank of each mouse. Mice were randomized into experimental groups of 7 mice and test articles were injected through the lateral tail vein under sterile conditions in a volume of 200 μL of phosphate-buffered saline (PBS). These studies were performed at Crown Bioscience (Beijing) Inc., Ground Floor, Light Muller Building, Changping Sector of Zhongguancun Scientific Park, No. 21 Huoju Road, Changping District, Beijing, P.R. China.
as §2

LU2505 NSCLC tumors = assay: Huprime NSCLC PDX tumor model; type: in vivo, Balb/c nu/nu mice; settings: in combination with Docetaxel
Method: as §3, §2

[2] = Toxicity as measured by weight loss / gross animal toxicity in tumor-bearing mice; settings: for Toxicity Avg. Weight Loss / Toxicity Deaths (%): TIW
Method: METHOD. Toxicity as Measured by Weight Loss. The percentage weight change of the test animals was determined on selected days post-tumor inoculation (PTI), and during dosing. The results were graphed.
Evaluation. Tumor size was monitored and body weight measured 3 times/week. Attention was given to gross animal morphology and behavior. Euthanasia was performed if the mice lost >20% of weight or when the tumors reached a size of 1500 mm3. Euthanasia was also performed at the researcher's discretion if mice lost a lot of weight in a short duration or when mice were approaching moribund conditions. Blood samples were collected by cardiac puncture from all viable animals from selected cohorts. Heart, lungs, liver, spleen, kidney, intestines, bone, brain and muscle were obtained immediately after euthanasia. The tissues were removed and stored in 10% neutral-buffered formalin.

[3] = 2 μmol/kg i.v. TIW 2 weeks, nearly 70 day observation period
[4] = EC1456 1.5 μmol/kg two times a week for two weeks
[5] = EC1456 3 μmol/kg once a week for two weeks
[6] = EC1456 2 μmol/kg two times a week for two weeks
[7] = EC1456 4 μmol/kg once a week for two weeks
[8] = KB tumors, 0.5 μmol/kg, 3 weeks
[9] = KB tumors, 0.67 μmol/kg, 2 weeks
[10] = KB tumors, 1.0 μmol/kg, 2 weeks
[11] = KB tumors, 2.0 μmol/kg, 2 weeks

**Q.** With CCCC(=O)OCN(C(=O)[C@@H](NC(=O)[C@H]1CCCCN1C)C(C)CC)[C@H](C[C@@H](OC(C)=O)c1nc(C(=O)N[C@@H](Cc2ccc(O)cc2)C[C@H](C)C(=O)NNC(=O)OCCSSC[C@@H](NC(=O)[C@H](CCC(=O)NC[C@H](O)[C@@H](O)[C@H](O)[C@H](O)CO)NC(=O)[C@@H](CCC(=O)O)NC(=O)[C@H](CCC(=O)NC[C@H](O)[C@@H](O)[C@H](O)[C@H](O)CO)NC(=O)[C@@H](CCC(=O)O)NC(=O)[C@H](CCC(=O)NC[C@H](O)[C@@H](O)[C@H](O)[C@H](O)CO)NC(=O)CC[C@@H](NC(=O)c2ccc(NCc3cnc4nc(N)[nH]c(=O)c4n3)cc2)C(=O)O)C(=O)O)cs1)C(C)C (stereo in doubt) [EC1456] as the molecule, how does the tumor regrowth (MDA-MB-231 tumors; 2 μmol/kg i.v. TIW 2 weeks, observation window nearly 135 days) read?
**A.** regrowth did not occur

**Q.** What about the “complete responses (tumor volume reduced to zero)” value (MDA-MB-231 tumors; 2 μmol/kg intravenous, three times per week, 2 consecutive weeks) of the same molecule?
**A.** 4 of 5

**Q.** What about the “regrowth of the tumor, test animals” value [1, 3] of the same molecule?
**A.** 1/5

**Q.** What about the “test animals cured (no regrowth)” value [1, 3] of the same molecule?
**A.** 4/5

**Q.** What about the CRs ([1]; 2 μmol/kg i.v. three times per week, 2 weeks) of the same molecule?
**A.** 5/5

**Q.** What about the animal exhibiting cure (ST040 tumors; [4]) of the same molecule?
**A.** 1 animal

**Q.** And the “animals exhibiting PRs” value (ST040 tumors; [4])?
**A.** 3 animals

**Q.** What about the “animals exhibiting PR's” value (ST040 tumors; [5]) of the same molecule?
**A.** 2 animals

**Q.** And the “animals exhibiting stable disease” value (ST040 tumors; [5])?
**A.** 3 animals

**Q.** What about the “animals exhibiting CRs” value (ST502 tumors; [6]) of the same molecule?
**A.** 5 animals

**Q.** And the animals exhibiting cures (ST502 tumors; [6])?
**A.** 2 animals

**Q.** What about the “animals exhibiting CR's” value (ST502 tumors; [7]) of the same molecule?
**A.** 3 animals

**Q.** What about the “animals exhibiting PR's” value (ST502 tumors; [7]) of the same molecule?
**A.** 4 animals

**Q.** What about the animals exhibiting cures (ST738 tumors; [6]) of the same molecule?
**A.** 7 animals

**Q.** And the “animals exhibiting PR's” value (ST738 tumors; [7])?
**A.** 2 animals

**Q.** What about the animals exhibiting cures (ST738 tumors; [7]) of the same molecule?
**A.** 4 animals

**Q.** And the PRs (LU1147 NSCLC tumors; [6])?
**A.** 5

**Q.** What about the cures (LU1147 NSCLC tumors; [6]) of the same molecule?
**A.** 2

**Q.** And the PRs (LU1147 NSCLC tumors; [7])?
**A.** 5

**Q.** What about the cures (LU1147 NSCLC tumors; [7]) of the same molecule?
**A.** 2

**Q.** And the cures (LU2505 NSCLC tumors; [6])?
**A.** 100%

**Q.** And the cures (LU2505 NSCLC tumors; [7])?
**A.** 100%

**Q.** What about the “whole animal toxicity as determined by animal body weight” value ([2]; KB tumors in nu/nu mice, 1 μmol/kg TIW, 2 weeks) of the same molecule?
**A.** did not result in any observable whole animal toxicity; also recorded: did not show any evidence of whole animal toxicity

**Q.** What about the gross animal toxicity ([2]; KB tumors, carboplatin/paclitaxel study, EC1456 alone 1 μmol/kg BIW×2) of the same molecule?
**A.** Gross animal toxicity was not observed

**Q.** What about the toxicity ([2]; KB tumors, carboplatin/paclitaxel study, carboplatin in combination with EC1456) of the same molecule?
**A.** Mild toxicity

**Q.** What about the “Toxicity Avg. Weight Loss” value [2, 8] of the same molecule?
**A.** <5%*

**Q.** What about the “Toxicity Deaths (%)” value [2, 8] of the same molecule?
**A.** 0%

**Q.** What about the “Toxicity Avg. Weight Loss” value [2, 9] of the same molecule?
**A.** <2%

**Q.** And the “Toxicity Deaths (%)” value [2, 9]?
**A.** 0%

**Q.** What about the “Toxicity Avg. Weight Loss” value [2, 10] of the same molecule?
**A.** <1.5%

**Q.** What about the “Toxicity Deaths (%)” value [2, 10] of the same molecule?
**A.** 0%

**Q.** What about the “Toxicity Avg. Weight Loss” value [2, 11] of the same molecule?
**A.** <3%

**Q.** What about the “Toxicity Deaths (%)” value [2, 11] of the same molecule?
**A.** 0%

**Q.** And the gross animal toxicity ([2]; KB tumors, EC1456 alone 1 μmol/kg BIW×2)?
**A.** Gross animal toxicity was not observed

**Q.** What about the gross animal toxicity ([2]; KB tumors, EC1456 alone 1 μmol/kg TIW×5) of the same molecule?
**A.** Gross animal toxicity was not observed

**Q.** And the toxicity ([2]; KB tumors, cisplatin 3 mg/kg BIW×3 in combination with EC1456)?
**A.** Mild toxicity

**Q.** And the toxicity ([2]; KB tumors, docetaxel 7 mg/kg BIW×3 in combination with EC1456)?
**A.** Mild toxicity

**Q.** And the “weight loss / host animal toxicity” value ([2]; KB-CR2000 tumors, EC1456 2 μmol/kg TIW 2 weeks)?
**A.** did not exhibit significant host animal toxicity; also recorded: did not cause any weight loss

**Q.** And the gross animal toxicity ([2]; KB-DR150 tumors, EC1456 alone 2 μmol/kg TIW×2)?
**A.** Gross animal toxicity was not observed

**Q.** And the toxicity ([2]; KB-DR150 tumors, doxorubicin in combination with EC1456)?
**A.** Mild toxicity

**Q.** And the gross animal toxicity ([2]; M109 tumors, EC1456 alone 2 μmol/kg TIW×2)?
**A.** Gross animal toxicity was not observed

**Q.** And the toxicity ([2]; M109 tumors, cisplatin in combination with EC1456)?
**A.** Mild toxicity

**Q.** And the “weight loss / gross whole animal toxicity (% weight change)” value ([2]; MDA-MB-231 tumors, 2 μmol/kg i.v. TIW 2 weeks)?
**A.** did not cause gross whole animal toxicity; also recorded: not accompanied by significant weight loss

**Q.** What about the gross animal toxicity ([2]; P-1635 KB tumors, EC1456 alone 1 μmol/kg TIW×2) of the same molecule?
**A.** Gross animal toxicity was not observed

**Q.** What about the toxicity ([2]; P-1635 KB tumors, carboplatin 50 mg/kg TIW in combination with EC1456) of the same molecule?
**A.** Mild toxicity

— patent publication US20170035894A1, “DRUG DELIVERY CONJUGATES FOR TREATING RESISTANT CANCER AND FOR USE IN COMBINATION THERAPY” (ENDOCYTE, INC., priority 2014, published 2017)
